Experiments:
[1] = molecular target: soluble human DPP4 (sDPP4) receptor (human) (UniProt P27487); experiment: ELISA, RBD-Fc coated at 1 µg/ml, sDPP4 serially diluted
[2] = molecular target: bat ACE2 (bACE2) receptor transiently expressed on 293T cells (bat)

Sequence of soluble human DPP4 (sDPP4) receptor (human) (P27487 39-766 limits assumed): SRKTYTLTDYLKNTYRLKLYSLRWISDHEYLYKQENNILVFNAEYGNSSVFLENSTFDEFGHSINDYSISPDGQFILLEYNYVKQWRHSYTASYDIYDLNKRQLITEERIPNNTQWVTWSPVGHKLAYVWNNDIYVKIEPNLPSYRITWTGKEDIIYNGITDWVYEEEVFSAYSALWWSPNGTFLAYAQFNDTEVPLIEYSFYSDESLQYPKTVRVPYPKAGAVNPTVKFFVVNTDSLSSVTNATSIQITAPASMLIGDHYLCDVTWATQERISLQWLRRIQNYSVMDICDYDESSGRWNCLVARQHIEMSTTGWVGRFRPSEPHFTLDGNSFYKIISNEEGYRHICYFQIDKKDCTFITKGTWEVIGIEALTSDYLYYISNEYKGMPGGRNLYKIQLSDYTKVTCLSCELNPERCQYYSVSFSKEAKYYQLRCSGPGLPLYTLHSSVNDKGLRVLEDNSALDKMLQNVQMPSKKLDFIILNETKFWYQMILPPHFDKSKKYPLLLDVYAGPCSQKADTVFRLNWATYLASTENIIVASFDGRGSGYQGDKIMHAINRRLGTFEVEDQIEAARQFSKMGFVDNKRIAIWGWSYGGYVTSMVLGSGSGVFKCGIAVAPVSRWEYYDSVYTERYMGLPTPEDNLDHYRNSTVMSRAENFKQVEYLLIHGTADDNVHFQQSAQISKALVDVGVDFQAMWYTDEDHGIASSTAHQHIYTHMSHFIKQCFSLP

For “MERS-CoV RBD-Fc fusion protein (residues 377-588 of MERS-CoV S protein with a C-terminal hFc) (from UniProt K9N5Q8 377-588)”, the EC50 [1] was 0.92 µg/mL.
Substance “SARS-CoV RBD-Fc fusion protein (residues 318-510 of SARS-CoV S protein with a C-terminal hFc) (from UniProt P59594 318-510)” has an EC50 [2] of 0.96 µg/mL.
